The record followed here is article PMC7949043, “Allosteric regulation of the nickel-responsive NikR transcription factor from Helicobacter pylori”.

The target in series [1] is T1, HpNikR (Helicobacter pylori G27 (strain from …, UniProt A1YSQ9 1-148)).
T1 sequence: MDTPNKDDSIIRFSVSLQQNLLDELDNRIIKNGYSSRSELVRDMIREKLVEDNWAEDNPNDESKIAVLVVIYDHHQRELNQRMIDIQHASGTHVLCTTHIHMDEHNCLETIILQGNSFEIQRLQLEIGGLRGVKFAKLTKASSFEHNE
Kind of series: fluorescence anisotropy; Ni(II) 1.2 eq per monomer; Hill n = 1.8 ± 0.1; FA: 5 nM labeled DNA, 20 mM Tris pH 7.6, 100 mM NaCl, 3 mM MgSO4, temperature not stated (metal loading at room temperature); 19F-NMR: same buffer with 10% D2O, 400-900 uM monomer, DNA 1 eq per tetramer, variable temperature from 4 C. The following applies: protein: recombinant; tags: none; chain copies: 4; label: fluorescein at central T in the spacer of strand 1 (printed [F] after T14); blunt.

Series [2] has as its target T1, HpNikR. The series is described as follows: fluorescence anisotropy; Ni(II) 1.2 eq per monomer; Hill n = 1.9 ± 0.2; FA: 5 nM labeled DNA, 20 mM Tris pH 7.6, 100 mM NaCl, 3 mM MgSO4, temperature not stated (metal loading at room temperature); 19F-NMR: same buffer with 10% D2O, 400-900 uM monomer, DNA 1 eq per tetramer, variable temperature from 4 C. Conditions: protein: recombinant; tags: none; chain copies: 4; label: fluorescein at central T in the spacer of strand 1 (printed [F] after T14); blunt.

Numbering of substitutions follows the chain as printed.

B1: ureA-F (32 bp ureA promoter) (dsDNA)
DNA 1: ATATAACACTAATTCATTTTAAATAATAATTA
DNA 2: TAATTATTATTTAAAATGAATTAGTGTTATAT
For the molecule B1, the equilibrium dissociation constant (Kd) with HpNikR [1] stood at 4.5 ± 0.6 nM.

B2: ureA-perf-F (32 bp) (dsDNA)
DNA 1: B1 DNA 1 with A6T, C7T, C9T
DNA 2: B1 DNA 2 with G24A, G26A, T27A
Turning to B2, the dissociation constant (Kd) with HpNikR [2] stood at 4.7 ± 0.4 nM.
